Laboratory results published in US20180009881A1 (VHSQUARED, published 2018).
Where two headings read alike, the source gives them in different places.

Key:
[1] = target: T1, recombinant human TNF (human, UniProt P01375 77-233); test: Standard TNFR2/TNF interference ELISA: ICVD mixed with human TNF, TNF captured on coated Enbrel (competition)
T1 construct: also called TNF-alpha; TNFα

[2] = target: T1, recombinant human TNF; test: Standard TNFR2/TNF interference ELISA (competition), against ID32F
[3] = target: T2, recombinant soluble human IL-6R (human, UniProt P08887 20-365); test: Standard gp130 ELISA: ICVD mixed with soluble human IL-6R, then IL-6; complex captured on coated gp130 (competition)
T2 construct: extracellular domain; Printed only as 'soluble'; read as the extracellular domain; also called hIL-6R; sIL-6R
T2 sequence (looked up): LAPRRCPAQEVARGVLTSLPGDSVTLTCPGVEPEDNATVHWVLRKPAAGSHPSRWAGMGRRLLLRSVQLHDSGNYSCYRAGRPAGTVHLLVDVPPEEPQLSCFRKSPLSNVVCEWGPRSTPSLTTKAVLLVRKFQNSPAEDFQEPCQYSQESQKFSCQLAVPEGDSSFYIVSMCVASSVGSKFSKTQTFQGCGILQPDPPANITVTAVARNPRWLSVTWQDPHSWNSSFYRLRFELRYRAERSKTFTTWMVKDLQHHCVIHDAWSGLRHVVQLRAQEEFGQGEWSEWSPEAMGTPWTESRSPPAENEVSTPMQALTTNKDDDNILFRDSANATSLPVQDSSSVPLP

[4] = target: T2, recombinant soluble human IL-6R; test: as above; remark: listed apart in the source

T1 sequence (P01375 77-233 limits assumed): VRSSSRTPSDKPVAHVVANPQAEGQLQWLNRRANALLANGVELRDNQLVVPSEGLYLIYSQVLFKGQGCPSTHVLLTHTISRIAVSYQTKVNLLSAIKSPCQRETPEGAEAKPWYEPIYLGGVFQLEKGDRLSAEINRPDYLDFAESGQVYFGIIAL

B1: anti-TNF-alpha ICVD ID8F-EV (VHH)
VHH: EVQLVESGGGLVQPGGSLKLSCAASGFDFSSHWMYWVRQAPGKELEWLSEINTNGLITHYGDSVKGRFTVSRNNAANKMYLELTRLEPEDTALYYCARNQKGLNKGQGTQVTVSS
notes: also called Q65B1 with a K59H substitution; K59H; not shown: C-terminal Flag-His6 tag
[1]
  EC50: 139 pM

B2: anti-TNF-alpha ICVD ID34F (VHH)
VHH: EVQLVESGGGLVQPGGSLKLSCAASGFDFSSHWMYWVRQAPGKELEWLSEINTNGLITHYGDSVKGRFTVSRNNAANKMYLELTRLEPEDTALYYCARNQHGLNKGQGTQVTVSS
notes: also called Q65B1 with K59H and K101H
[2]
  binding result: binds

B3: anti-TNF-alpha ICVD ID43F (VHH)
VHH: EVQLVESGGGLVQPGGSLKLSCAASGFDFSSHWMYWVRQAPGKELEWLSEINTNGLITAYGDSVKGRFTVSRNNAANKMYLELTRLEPEDTALYYCARNQKGLNKGQGTQVTVSS
notes: also called Q65B1 with a K59A substitution; K59A; not shown: C-terminal Flag-His6 tag
[1]
  EC50: 603 pM

B4: anti-TNF-alpha ICVD ID44F (VHH)
VHH: EVQLVESGGGLVQPGGSLKLSCAASGFDFSSHWMYWVRQAPGKELEWLSEINTNGLITQYGDSVKGRFTVSRNNAANKMYLELTRLEPEDTALYYCARNQKGLNKGQGTQVTVSS
notes: also called Q65B1 with a K59Q substitution; K59Q; not shown: C-terminal Flag-His6 tag
[1]
  EC50: 245 pM

B5: anti-TNF-alpha ICVD Q65B1 (VHH)
VHH: EVQLVESGGGLVQPGGSLKLSCAASGFDFSSHWMYWVRQAPGKELEWLSEINTNGLITKYGDSVKGRFTVSRNNAANKMYLELTRLEPEDTALYYCARNQKGLNKGQGTQVTVSS
notes: also called K59; not shown: C-terminal Flag-His6 tag
[1]
  EC50: 98.4 pM

B6: anti-IL-6R ICVD 7F6 (VHH)
VHH: EVQLVESGGGLVQAGGSTRLTCLASGSISSINVIGWYRQAPGKQRELVAMIGRGEGANYGDFAKGRFTISRDNSKNTVYLQMNSLKPEDTAVYYCYADYEDRDSPFNGSWGQGTQVTVSS
[3]
  EC50: 150 pM

B7: anti-IL-6R ICVD ID-3V (VHH)
VHH: EVQLVESGGGLVQAGGSTRLTCLASGSISSINVIGWYRQAPGKQRELVAMIGRGEGANYGDFAKGRFTISRDNSKNTVYLQMNSLKPEDTAVYYCYADYEDHDSPFNGSWGQGTQVTVSS
notes: also called 7F6 with R102H
[3]
  EC50: 160 pM

B8: anti-IL-6R ICVD 5G9 (VHH)
VHH: EVQLVESGGGLVQAGGSTRLTCKASGSIFNINSINVMAWYRQAPGKQRELVAIIGKGGGTNYADFVKGRFTISRDAAKNTVNLQMNSLKPEDTAVYYCYADYEDRDSPFNASWGQGTQVTVSS
[4]
  EC50: 90 pM

B9: anti-IL-6R ICVD ID-54V (VHH)
VHH: EVQLVESGGGLVQAGGSTRLTCKASGSIFNINSINVMAWYRQAPGKQRELVAIIGKGGGTNYADFVKGRFTISRDAAKNTVNLQMNSLKPEDTAVYYCYADYEDHDSPFNASWGQGTQVTVSS
notes: also called 5G9 with R105H
[4]
  EC50: 150 pM
